Numbering of substitutions follows the chain as printed. Blank lines part the entries; values can stand above or below the molecule they belong to.
Columns and labels:
[1] = target: T1, AcsA from Chloroflexota bacterium (Chloroflexota bacterium, UniProt Z9YKO5Y7U4); experiment: X-ray crystallography; type: binding; conditions: product of the first half-reaction; thioester-forming conformation
T1 construct: monomer in solution and crystal; expression and tag not described; His476 found phosphorylated
T1 sequence (Z9YKO5Y7U4 9-657): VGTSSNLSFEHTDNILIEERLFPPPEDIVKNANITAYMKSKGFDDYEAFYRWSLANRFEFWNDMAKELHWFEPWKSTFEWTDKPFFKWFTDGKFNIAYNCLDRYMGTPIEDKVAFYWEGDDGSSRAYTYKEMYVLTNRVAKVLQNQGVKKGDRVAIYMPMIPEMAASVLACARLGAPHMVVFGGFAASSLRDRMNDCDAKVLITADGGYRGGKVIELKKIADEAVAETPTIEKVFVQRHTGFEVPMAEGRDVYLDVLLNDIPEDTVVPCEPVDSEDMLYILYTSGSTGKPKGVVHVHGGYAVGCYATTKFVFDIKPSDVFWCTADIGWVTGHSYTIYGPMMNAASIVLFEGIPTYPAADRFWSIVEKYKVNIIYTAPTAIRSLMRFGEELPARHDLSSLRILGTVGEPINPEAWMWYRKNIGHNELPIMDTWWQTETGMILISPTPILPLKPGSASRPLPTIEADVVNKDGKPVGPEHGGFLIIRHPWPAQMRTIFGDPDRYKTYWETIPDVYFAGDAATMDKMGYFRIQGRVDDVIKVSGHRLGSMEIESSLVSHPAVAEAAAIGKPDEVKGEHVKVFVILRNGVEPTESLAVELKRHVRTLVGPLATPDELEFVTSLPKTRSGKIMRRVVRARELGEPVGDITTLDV

AcsA E473A = target: T2, AcsA E473A (Bacillus subtilis, UniProt P39062 1-572, E473A); experiment: SEC; analytical SEC of equimolar AcsA and AcuA (wild type or mutants), incubated 30 min at room temperature, Superdex 200 10/300 GL, 50 mM Tris/HCl pH 8, 50 mM KCl, 2 mM β-mercaptoethanol; 100 µl of 50–100 µM; without ligand or with a tenfold molar excess of CoA or AcP alone; conditions: both partners purified
T2 construct: AcsA, Bacillus subtilis, UniProt P39062, with E473A
T2 sequence (looked up): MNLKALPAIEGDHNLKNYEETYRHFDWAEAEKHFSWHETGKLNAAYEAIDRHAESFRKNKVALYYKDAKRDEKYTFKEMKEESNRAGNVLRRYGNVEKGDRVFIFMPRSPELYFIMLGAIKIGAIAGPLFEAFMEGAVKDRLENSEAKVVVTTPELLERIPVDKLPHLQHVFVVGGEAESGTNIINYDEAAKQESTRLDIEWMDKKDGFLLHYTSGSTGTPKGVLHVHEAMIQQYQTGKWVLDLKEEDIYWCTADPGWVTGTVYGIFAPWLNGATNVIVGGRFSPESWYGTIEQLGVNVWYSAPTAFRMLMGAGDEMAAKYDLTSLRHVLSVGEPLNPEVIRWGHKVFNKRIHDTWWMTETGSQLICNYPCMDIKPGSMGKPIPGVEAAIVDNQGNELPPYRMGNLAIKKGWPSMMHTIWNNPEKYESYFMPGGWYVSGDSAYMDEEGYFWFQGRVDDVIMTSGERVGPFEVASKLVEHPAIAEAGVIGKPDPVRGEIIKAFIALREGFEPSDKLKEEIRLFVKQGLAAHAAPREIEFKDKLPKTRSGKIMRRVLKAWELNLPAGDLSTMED

AcsA V477A = target: T3, AcsA V477A (Bacillus subtilis, UniProt P39062 1-572, V477A); experiment: as above; conditions: both partners purified
T3 construct: AcsA, Bacillus subtilis, UniProt P39062, with V477A
T3 sequence (looked up): T2 sequence (looked up) with A473E, V477A

AcsA K549Q = target: T4, AcsA K549Q (Bacillus subtilis, UniProt P39062 1-572, K549Q); experiment: as above; conditions: both partners purified
T4 construct: AcsA, Bacillus subtilis, UniProt P39062, with K549Q; also called acetylation-mimetic mutant AcsA K549Q
T4 sequence (looked up): T2 sequence (looked up) with A473E, K549Q

AcsA K549R = target: T5, AcsA K549R (Bacillus subtilis, UniProt P39062 1-572, K549R); experiment: as above; conditions: both partners purified
T5 construct: AcsA, Bacillus subtilis, UniProt P39062, with K549R; also called non-acetylated mutant AcsA K549R
T5 sequence (looked up): T2 sequence (looked up) with A473E, K549R

[2] = target: Bacillus subtilis AMP-forming acetyl-CoA synthetase AcsA (Bacillus subtilis) (UniProt P39062); experiment: as above

Molecule: CC(=O)OP(=O)(O)OC[C@H]1O[C@@H](n2cnc3c(N)ncnc32)[C@H](O)[C@@H]1O [acetyl-AMP]
X-ray crystallography [1]: structure solved in complex with acetyl-AMP, i.e. the product of the first half-reaction

binding result (AcsA E473A): binds | binding result (AcsA V477A): binds | binding result (AcsA K549Q): binds | binding result (AcsA K549R): binds | stoichiometry N (AcuA per AcsA (2:2)) [2]: 1
B1: Bacillus subtilis acetyltransferase AcuA (enzyme, UniProt P39065 1-210, looked up)
chain: MEHHKTYHSANIKTATGSLLIEGPVSPEDLAGYEFHKDLTAFRPPREQHEALVDIAGLPEGRIIIARDGRTIVGYVTYLYPDPLERWSEGNMEDLIELGAIEVAPDYRGCAVGKTLLTVSMMDEQMENYIVMTTEYYWHWDLKGMKKDVWEYRKIMEKMMNAGGLVWFATDEPEISSHPANCLMARIGKNVSQESIEQFDRLRFYHRYMY
notes: GNAT-related lysine acetyltransferase AcuA, Bacillus subtilis, UniProt P39065; synthetic gene codon optimized for E. coli; also called AcuA wildtype; AcuA WT; source: E. coli BL21 (DE3), pET45b(+), purified (HisTrap FF, Ni2+)

— paper PMC11255334, “Acetyl-CoA synthetase activity is enzymatically regulated by lysine acetylation using acetyl-CoA or acetyl-phosphate as donor molecule” (Nature Communications, 2024)
